# Data taken from US20130101571A9, “ANTIDOTES FOR NITROBENZODIAZEPINES” (Academia Sinica, priority 2011, published 2013).
# Entries after “also recorded” stand apart in the source; their conditions may differ.
# B1: Wild type: Wild-type E. coli type I nitroreductase NfsB (NP-415110; SEQ ID NO:1), His-tagged recombinant protein (protein)
# chain: MDIISVALKRHSTKAFDASKKLTPEQAEQIKTLLQYSPSSTNSQPWHFIVASTEEGKARVAKSAAGNYVFNERKMLDASHVVVFCAKTAMDDVWLKLVVDQEDADGRFATPEAKAANDKGRKFFADMHRKDLHDDAEWMAKQVYLNVGNFLLGVAALGLDAVPIEGFDAAILDAEFGLKEKGYTSLVVVPVGHHSVEDFNATLPKSRLPQNITLTEV
# modifications: His tag; E. coli
# B2: T41L (protein)
# chain: MDIISVALKRHSTKAFDASKKLTPEQAEQIKTLLQYSPSSLNSQPWHFIVASTEEGKARVAKSAAGNYVFNERKMLDASHVVVFCAKTAMDDVWLKLVVDQEDADGRFATPEAKAANDKGRKFFADMHRKDLHDDAEWMAKQVYLNVGNFLLGVAALGLDAVPIEGFDAAILDAEFGLKEKGYTSLVVVPVGHHSVEDFNATLPKSRLPQNITLTEV
# B3: F70H (protein)
# chain: MDIISVALKRHSTKAFDASKKLTPEQAEQIKTLLQYSPSSTNSQPWHFIVASTEEGKARVAKSAAGNYVHNERKMLDASHVVVFCAKTAMDDVWLKLVVDQEDADGRFATPEAKAANDKGRKFFADMHRKDLHDDAEWMAKQVYLNVGNFLLGVAALGLDAVPIEGFDAAILDAEFGLKEKGYTSLVVVPVGHHSVEDFNATLPKSRLPQNITLTEV
# B4: Y68G (protein)
# chain: MDIISVALKRHSTKAFDASKKLTPEQAEQIKTLLQYSPSSTNSQPWHFIVASTEEGKARVAKSAAGNGVFNERKMLDASHVVVFCAKTAMDDVWLKLVVDQEDADGRFATPEAKAANDKGRKFFADMHRKDLHDDAEWMAKQVYLNVGNFLLGVAALGLDAVPIEGFDAAILDAEFGLKEKGYTSLVVVPVGHHSVEDFNATLPKSRLPQNITLTEV
# B5: S40G (protein)
# chain: MDIISVALKRHSTKAFDASKKLTPEQAEQIKTLLQYSPSGTNSQPWHFIVASTEEGKARVAKSAAGNYVFNERKMLDASHVVVFCAKTAMDDVWLKLVVDQEDADGRFATPEAKAANDKGRKFFADMHRKDLHDDAEWMAKQVYLNVGNFLLGVAALGLDAVPIEGFDAAILDAEFGLKEKGYTSLVVVPVGHHSVEDFNATLPKSRLPQNITLTEV
# B6: F124H (protein)
# chain: MDIISVALKRHSTKAFDASKKLTPEQAEQIKTLLQYSPSSTNSQPWHFIVASTEEGKARVAKSAAGNYVFNERKMLDASHVVVFCAKTAMDDVWLKLVVDQEDADGRFATPEAKAANDKGRKFHADMHRKDLHDDAEWMAKQVYLNVGNFLLGVAALGLDAVPIEGFDAAILDAEFGLKEKGYTSLVVVPVGHHSVEDFNATLPKSRLPQNITLTEV
# B7: F124W (protein)
# chain: MDIISVALKRHSTKAFDASKKLTPEQAEQIKTLLQYSPSSTNSQPWHFIVASTEEGKARVAKSAAGNYVFNERKMLDASHVVVFCAKTAMDDVWLKLVVDQEDADGRFATPEAKAANDKGRKFWADMHRKDLHDDAEWMAKQVYLNVGNFLLGVAALGLDAVPIEGFDAAILDAEFGLKEKGYTSLVVVPVGHHSVEDFNATLPKSRLPQNITLTEV
# B8: N71S/F124W: Double mutant N71S/F124W of E. coli type I nitroreductase NfsB (protein)
# chain: MDIISVALKRHSTKAFDASKKLTPEQAEQIKTLLQYSPSSTNSQPWHFIVASTEEGKARVAKSAAGNYVFSERKMLDASHVVVFCAKTAMDDVWLKLVVDQEDADGRFATPEAKAANDKGRKFWADMHRKDLHDDAEWMAKQVYLNVGNFLLGVAALGLDAVPIEGFDAAILDAEFGLKEKGYTSLVVVPVGHHSVEDFNATLPKSRLPQNITLTEV
# B9: N71S (protein)
# chain: MDIISVALKRHSTKAFDASKKLTPEQAEQIKTLLQYSPSSTNSQPWHFIVASTEEGKARVAKSAAGNYVFSERKMLDASHVVVFCAKTAMDDVWLKLVVDQEDADGRFATPEAKAANDKGRKFFADMHRKDLHDDAEWMAKQVYLNVGNFLLGVAALGLDAVPIEGFDAAILDAEFGLKEKGYTSLVVVPVGHHSVEDFNATLPKSRLPQNITLTEV
# B10: F70Y (protein)
# chain: MDIISVALKRHSTKAFDASKKLTPEQAEQIKTLLQYSPSSTNSQPWHFIVASTEEGKARVAKSAAGNYVYNERKMLDASHVVVFCAKTAMDDVWLKLVVDQEDADGRFATPEAKAANDKGRKFFADMHRKDLHDDAEWMAKQVYLNVGNFLLGVAALGLDAVPIEGFDAAILDAEFGLKEKGYTSLVVVPVGHHSVEDFNATLPKSRLPQNITLTEV
# B11: F124Y (protein)
# chain: MDIISVALKRHSTKAFDASKKLTPEQAEQIKTLLQYSPSSTNSQPWHFIVASTEEGKARVAKSAAGNYVFNERKMLDASHVVVFCAKTAMDDVWLKLVVDQEDADGRFATPEAKAANDKGRKFYADMHRKDLHDDAEWMAKQVYLNVGNFLLGVAALGLDAVPIEGFDAAILDAEFGLKEKGYTSLVVVPVGHHSVEDFNATLPKSRLPQNITLTEV
# Columns and labels:
# [1] = test system: nfsb-wt and nfsb-n71s/f124w-transformed E. coli BL21(DE3); assay: Disk assay for FZ sensitivity (disk diffusion, zones of inhibition); format: cell-based; conditions: E. coli expressing wild-type enzyme or N71S/F124W mutant; dosage up to 400 μg; 24 hrs
# Protocol: LB plates were uniformly streaked with 0.1 ml of bacterial cell suspensions having an OD600 value of 0.8. Sterile 7 mm filter paper disks saturated with 7 μl of each chemical, including FZ alone, metronidazole (MTZ) alone, and a combination of FZ and MTZ at a ratio of 1/1 by weight, in the amounts indicated in FIG. 4 were placed on the plates. The cells were incubated for 24 hrs before the zones of inhibition were measured.^22
# [2] = 7AFZ production from FZ by purified NfsB proteins (HPLC); format: biochemical; conditions: for 7AFZ formation: FZ 64 μM, purified NfsB protein 10 μg, NADPH 2 mM, 2 h at 37° C., mean±S.D. from three incubations; for production of 7AFZ compared to the wild-type enzyme (in words): anaerobic conditions, FIG. 2B
# Protocol: Production of 7AFZ was performed under both aerobic or anaerobic conditions. For anaerobic incubation, nitrogen was inlet into an anaerobic incubator (Biotrace). The reaction mixture consisted of FZ (64 μM), purified NfsB proteins (10 μg), MgCl2 (3.3 mM), and NADPH (2 mM) in 100 mM potassium phosphate buffer (pH 7.4). After incubation for 2 h at 37° C., the reaction was terminated by the addition of a methanol solution (200 μl) containing bromazepam (1 μg/mL), which acted as an internal control. The reaction products were extracted via sonication and analyzed by HPLC at 240 nm with a procedure described previously.^13 The detection limit for 7AFZ or FZ was less than 3-5 ng with 83-86% of recovery.
# [3] = Kinetic study monitoring the rate of FZ disappearance (standard nitroreductase assay of E. coli NfsB); format: biochemical; conditions: aerobic; for Km / Vmax: FZ 4-256 μM, linear plot; for Km / Vmax / Specific activity / Specific activity relative to wild type: NADPH 2 mM; for Specific activity / Specific activity relative to wild type: against FZ
# Protocol: A kinetic study was carried out by monitoring the rate of FZ disappearance. FZ (4-256 μM) was incubated with purified NfsB proteins (10 μg) under the aerobic conditions described above for 2 h in the presence of NADPH at a fixed concentration of 2 mM.
# Data were analyzed and calculated via linear plot (13). The amounts of FZ were obtained via the standard nitroreductase assay of E. coli NfsB in the presence of a fixed concentration of cofactor NADPH (2 mM).
# FZ-induced hypnosis = assay: Sleep-time (anti-FZ hypnosis) study in mice; format: in vivo, Balb/c mice; conditions: for effect on sleep-time in treated mice (in words): FZ-treated Balb/c mice, FIG. 5A
# Protocol: Male Balb/c mice were purchased from the Animal Center, College of Medicine, National Taiwan University (NTUMC), and were housed in the air-conditioned animal quarters on a 12-h light/dark cycle (temperature 23-25° C.). The animals had free access to water and rodent laboratory chow (Purina Mills Inc.) with the experimental procedures being approved by the Institutional Care and Use Committee at NTUMC.
# A sleep-time study in mice was started at the age of seven weeks (body weight ranged from 17.6-19.2 g) following experimental procedures modified from previous studies.^23 Briefly, mice were divided into three groups (at least 4 mice per group) and injected i.p. with 2 mg/kg body weight of FZ from the stock solution (0.4 mg/ml in corn oil). One minute later, mice in Group I, Group II, and Group III were injected i.v. with a vehicle control, 1 mg/ml of wild-type NfsB enzyme (dissolved in 100 mM potassium phosphate buffer, pH 7.4), and 1 mg/ml of the N71S/F124W mutant enzymes (also dissolved in 100 mM potassium phosphate buffer, pH 7.4), respectively, via the tail lateral veins of the FZ-treated mice. The ability of the treated mice to stand on a stainless steel laboratory holder was examined at various time points. A mouse was characterized as losing the reflex ability if it could not stand on the holder for 10 seconds; A mouse was defined as having regained the reflex ability if it could stand on the holder for at least 10 seconds. The time between losing and regaining the reflex ability was defined as sleep-time and recorded for each group.
# [4] = NfsB in mice serum by direct competitive ELISA; conditions: 24 hours after the injection
# Protocol: The ELISA assay used in this study was a modified version of a previously described method.^24 Briefly, 96-well microtitre plates were coated with 100 μL of anti-NfsB antibody solution (4 μg/ml in PBS; 13) overnight at 4° C., then washed with PBS containing 0.05% Tween 20 (PBST) in triplicate, then incubated with a blocking buffer containing PBST and 1% BSA. NfsB standards (containing 40 μl sera of untreated mice), or samples (containing 40 μl sera from treated mice collected 1, 3, 6, 12, and 24 hours after the treatment) were placed in the above-noted blocking buffer (60 μL) and added to the wells, which were incubated overnight at 4° C. Enzyme tracer solution (100 μl 6×His mAb/HRP, 1:10,000 in PBS) were added to the wells and incubated at 37° C. for 30 min Subsequently, the wells were washed and TMB substrate solution was added (100 μl). After incubation for 15 min at room temperature, a sulfuric acid solution (2N, 50 μl) was added to stop color development. The absorbance was measured at 450 nm. […] NfsB concentration in the sera samples of the treated groups were calculated based on the standard curve.
molecule,measurement,setting,value
"CN1C(=O)CN=C(c2ccccc2F)c2cc([N+](=O)[O-])ccc21 [FZ, flunitrazepam]",inhibitory effect (zones of inhibition) on E. coli cells,[1],neither exhibited toxicity nor increased MTZ toxicity; also recorded: did not show any inhibitory effect
"Cc1ncc([N+](=O)[O-])n1CCO [Metronidazole, metronidazole]",inhibitory effect (zones of inhibition) on E. coli cells,[1],dose-dependent
B1,7AFZ formation,[2]; aerobic,29.52 ± 6.6 ng
same,7AFZ formation,[2]; anaerobic,51.85 ± 2.19 ng
same,Km,[3],71.4 µM
same,Vmax,[3],1.89 µM/min
same,Specific activity,[3],82.9 nmol/min/mg protein
same,Specific activity relative to wild type,[3],1.0 fold
same,effect on sleep-time in treated mice (in words),FZ-induced hypnosis,significantly reduced the sleep-time
same,enzyme remaining in the serum,[4],30%
B2,production of 7AFZ compared to the wild-type enzyme (in words),[2],significantly increased
B3,production of 7AFZ compared to the wild-type enzyme (in words),[2],higher activity
B4,production of 7AFZ compared to the wild-type enzyme (in words),[2],significantly increased
B5,production of 7AFZ compared to the wild-type enzyme (in words),[2],higher activity
B6,production of 7AFZ compared to the wild-type enzyme (in words),[2],significantly increased
B7,7AFZ formation relative to wild-type enzyme,[2]; anaerobic,2.7 fold
same,production of 7AFZ compared to the wild-type enzyme (in words),[2],significantly increased
same,7AFZ formation,[2]; anaerobic,141.88 ± 5.28 ng
B8,7AFZ formation relative to wild-type enzyme,[2]; aerobic,11.77 fold
same,7AFZ formation,[2]; aerobic,347.56 ± 16.59 ng
same,7AFZ formation relative to wild-type enzyme,[2]; anaerobic,5.6 fold
same,7AFZ formation,[2]; anaerobic,290.52 ± 18.38 ng
same,Km,[3],111 µM
same,Vmax,[3],3.13 µM/min
same,Vmax relative to wild-type enzyme,[3],1.7 fold
same,Specific activity,[3],195.5 nmol/min/mg protein
same,Specific activity relative to wild type,[3],2.4 fold
same,effect on sleep-time in treated mice (in words),FZ-induced hypnosis,significantly reduced the sleep-time
same,decrease of sleeping time compared to the vehicle group,FZ-induced hypnosis; FZ-treated mice,50%
same,sleeping time,"FZ-induced hypnosis; FZ-treated mice, enzyme 1 mg/ml i.v. one minute after FZ",138 ± 22 min
B9,7AFZ formation relative to wild-type enzyme,[2]; anaerobic,2.4 fold
same,production of 7AFZ compared to the wild-type enzyme (in words),[2],significantly increased
same,7AFZ formation,[2]; anaerobic,126 ± 2.06 ng
B10,production of 7AFZ compared to the wild-type enzyme (in words),[2],higher activity
B11,production of 7AFZ compared to the wild-type enzyme (in words),[2],higher activity
